Laboratory results: paper PMC12828403

Molecular target: polyketide synthase 16 (Pks16) (Dictyostelium discoideum (endogenous in AX2-214 cells)) (UniProt Q869W9)
Test: cryo-EM structure; shotgun EM of endogenous assemblies in a heterogeneous pool of SEC and mixed-bed IEX fractions of D. discoideum lysate; 50 mM Hepes pH 7.4, 100 mM NaCl, 3 mM MgSO4, 0.1 mM EGTA, 1 mM DTT, 2% glycerol; 200 kV Glacios; proteins identified by MS of the same sample; AlphaFold 3 models fitted into the maps

“polyketide synthase 16 (Pks16), Q869W9 1-2603” showed a stoichiometry N of 2.
